Test results reported in US20160272680A1 (Bristol-Myers Squibb, published 2016).
Numbered stars: 1 amine (or outer) side, 2 acyl side, 3 side chain; on linkers, the order of the positions; unused ones are H or OH. Bridge positions count the residues as written; N and C are the ends. Square brackets hold non-standard residues; d marks the D form. * marks the point of attachment. Trp(1-CH2CO) = O=C([C@H](Cc1cn(CC(=O)[*:3])c2ccccc12)N[*:1])[*:2]; Hyp = O=C(O)[C@@H]1C[C@@H](O)CN1; NMeNle = CCCC[C@H](NC)C(=O)O; NMeA = CN[C@@H](C)C(=O)O; Dab = NCC[C@H](N)C(=O)O; Dap = NC[C@H](N)C(=O)O; NHBn = c1ccc(CN*)cc1

Columns and labels:
hPDL1(19-239)-TVMV-His [1] = target: T1, hPDL1(19-239)-TVMV-His (human, UniProt Q9NZQ7 19-239); assay: HTRF competition of PD-1-Ig binding to PD-L1-His; code A=0.01-0.06 µM
T1 construct: Expressed in HEK293T cells; The text says amino acids 18-239, but the construct is named hPD-L1(19-239); The whole entry, including the TVMV site and His tag, is the protein used in the assay; also called PD-L1-TVMV-His; PD-L1-His
Procedure: (§1) Homogenous Time-Resolved Fluorescence (HTRF) Assays of Binding of Soluble PD-1 to Soluble PD-L1. Soluble PD-1 and soluble PD-L1 refers to proteins with carboxyl-end truncations that remove the transmembrane-spanning regions and are fused to heterologous sequences, specifically the Fc portion of the human immunoglobuling G sequence (Ig) or the hexahistidine epitope tag (His). All binding studies were performed in an HTRF assay buffer consisting of dPBS supplemented with 0.1% (w/v) bovine serum albumin and 0.05% (v/v) Tween-20. For the PD-1-Ig/PD-L1-His binding assay, inhibitors were pre-incubated with PD-L1-His (10 nM final) for 15 m in 4 μl of assay buffer, followed by addition of PD-1-Ig (20 nM final) in 1 μl of assay buffer and further incubation for 15 m. PD-L1 fusion proteins from either human, cynomologous macaques, mouse, or other species were used. HTRF detection was achieved using europium crypate-labeled anti-Ig monoclonal antibody (1 nM final) and allophycocyanin (APC) labeled anti-His monoclonal antibody (20 nM final). Antibodies were diluted in HTRF detection buffer and 5 μl was dispensed on top of binding reaction. The reaction was allowed to equilibrate for 30 minutes and signal (665 nm/620 nm ratio) was obtained using an EnVision fluorometer. Additional binding assays were established between PD-1-Ig/PD-L2-His (20 and 5 nM, respectively), CD80-His/PD-L1-Ig (100 and 10 nM, respectively) and CD80-His/CTLA4-Ig (10 and 5 nM, respectively). Binding/competition studies between biotinylated Compound No. 71 and human PD-L1-His were performed as follows. Macrocyclic peptide inhibitors were pre-incubated with PD-L1-His (10 nM final) for 60 minutes in 4 μl of assay buffer followed by addition of biotinylated Compound No. 71 (0.5 nM final) in 1 μl of assay buffer. Binding was allowed to equilibrate for 30 minutes followed by addition of europium crypated labeled Streptavidin (2.5 pM final) and APC-labeled anti-His (20 nM final) in 5 μl of HTRF buffer. The reaction was allowed to equilibrate for 30 m and signal (665 nm/620 nm ratio) was obtained using an EnVision fluorometer.

hPDL1(19-239)-TVMV-His [2] = target: T1, hPDL1(19-239)-TVMV-His; assay: HTRF competition of PD-1-Ig binding to PD-L1-His; code B=0.004-0.0099 µM
Procedure: as §1

hPDL1(19-239)-TVMV-His [3] = target: T1, hPDL1(19-239)-TVMV-His; assay: HTRF competition of PD-1-Ig binding to PD-L1-His
Procedure: as §1, with “The reaction was allowed to equilibrate for 30 m and signal (665 nm/620 nm ratio) was obtained using an EnVision fluorometer.” left out

T1 sequence (Q9NZQ7 other isoform, or with tags, fused parts or gaps limits assumed): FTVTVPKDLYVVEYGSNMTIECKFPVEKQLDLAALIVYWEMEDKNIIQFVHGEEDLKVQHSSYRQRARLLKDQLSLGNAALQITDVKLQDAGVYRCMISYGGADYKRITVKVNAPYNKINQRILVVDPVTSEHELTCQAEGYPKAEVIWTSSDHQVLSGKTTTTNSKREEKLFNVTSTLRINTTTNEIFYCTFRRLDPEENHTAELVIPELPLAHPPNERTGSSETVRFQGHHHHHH

Row | IC50 (hPDL1(19-239)-TVMV-His [1]) | IC50 (hPDL1(19-239)-TVMV-His [2]) | Binder | also measured
1 | 10 to 60 nM |  | {CH2CO}-Y[NMeA]NP[Dap]L[Hyp]WGW[NMeNle][NMeNle]LCG-{N‑(3-aminopropyl)diethanolamine} (thioether N-14, Macrocyclic peptide) [Example 13107] | 
2 | 10 to 60 nM |  | {CH2CO}-Y[NMeA]NP[Dap]L[Hyp]WGW[NMeNle][NMeNle]LCG-{4‑(4-chlorophenyl)piperidine} (thioether N-14, Macrocyclic peptide) [Example 13115] | 
3 |  | 4 to 9.9 nM | {CH2CO}-Y[NMeA]NP[Dap]L[Hyp]WGW[NMeNle][NMeNle]LCG-{piperidin‑1‑yl amide} (thioether N-14, Macrocyclic peptide) [Example 13086] | 
4 | 10 to 60 nM |  | {CH2CO}-Y[NMeA]NP[Dap]L[Hyp]WGW[NMeNle][NMeNle]LCG-{N‑methyl‑N‑propylamide} (thioether N-14, Macrocyclic peptide) [Example 13084] | 
5 |  |  | {CH2CO}-Y[NMeA]NP[Dap]L[Hyp]WGW[NMeNle][NMeNle]LCG-{N‑(3-aminopropyl)morpholine amide} (thioether N-14, Macrocyclic peptide) [Example 13093] | IC50 (hPDL1(19-239)-TVMV-His [3]): 8.17 nM
6 |  | 4 to 9.9 nM | {CH2CO}-Y[NMeA]NP[Dap]L[Hyp]WGW[NMeNle][NMeNle]LCG-{3‑aminopropanamide} (thioether N-14, Macrocyclic peptide) [Example 13110] | 
7 | 10 to 60 nM |  | {CH2CO}-Y[NMeA]NP[Dap]L[Hyp]WGW[NMeNle][NMeNle]LCG-{2‑phenoxyethylamine} (thioether N-14, Macrocyclic peptide) [Example 13108] | 
8 |  | 4 to 9.9 nM | {CH2CO}-Y[NMeA]NP[Dap]L[Hyp]WGW[NMeNle][NMeNle]LCG-phenylpiperazine (thioether N-14, Macrocyclic peptide) [Example 13117] | 
9 |  |  | {CH2CO}-Y[NMeA]NP[Dap]L[Hyp]WGW[NMeNle][NMeNle]LCG-{4‑phenylpiperidine amide} (thioether N-14, Macrocyclic peptide) [Example 13088] | IC50 (hPDL1(19-239)-TVMV-His [3]): 50 nM
10 | 10 to 60 nM |  | {CH2CO}-Y[NMeA]NP[Dap]L[Hyp]WGW[NMeNle][NMeNle]LCG-{N‑Boc‑1,5‑diaminopentane} (thioether N-14, Macrocyclic peptide) [Example 13112] | 
11 |  | 4 to 9.9 nM | {CH2CO}-Y[NMeA]NP[Dap]L[Hyp]W[Dab][Trp(1-CH2CO)][NMeNle][NMeNle]LCG-NHBn (thioether N-14; SMILES CCCC[C@H]1C(=O)N(C)[C@@H](CCCC)C(=O)N[C@@H](CC(C)C)C(=O)N[C@H](C(=O)NCC(=O)NCc2ccccc2)CSCC(=O)N[C@@H](Cc2ccc(O)cc2)C(=O)N(C)[C@@H](C)C(=O)N[C@@H](CC(N)=O)C(=O)N2CCC[C@H]2C(=O)N[C@@H](CN)C(=O)N[C@@H](CC(C)C)C(=O)N2C[C@H](O)C[C@H]2C(=O)N[C@@H](Cc2c[nH]c3ccccc23)C(=O)N[C@@H](CCN)C(=O)N[C@@H](Cc2cn(CC(=O)O)c3ccccc23)C(=O)N1C, Macrocyclic peptide) [Example 13080] | 
12 | 10 to 60 nM |  | {CH2CO}-Y[NMeA]NP[Dap]L[Hyp]WGW[NMeNle][NMeNle]LCG-{4‑aminocyclohexanol} (thioether N-14, Macrocyclic peptide) [Example 13106] | 
13 | 10 to 60 nM |  | {CH2CO}-Y[NMeA]NP[Dap]L[Hyp]WGW[NMeNle][NMeNle]LCG-{N‑(2-aminoethyl)‑N‑methyl carbamic acid tert‑butyl ester} (thioether N-14, Macrocyclic peptide) [Example 13113] | 
14 | 10 to 60 nM |  | {CH2CO}-Y[NMeA]NP[Dap]L[Hyp]WGW[NMeNle][NMeNle]LCG-{tert‑butyl 3‑aminopropanoate} (thioether N-14, Macrocyclic peptide) [Example 13109] | 
15 | 10 to 60 nM |  | {CH2CO}-Y[NMeA]NP[Dap]L[Hyp]WGW[NMeNle][NMeNle]LCG-{4‑piperidinemethanol} (thioether N-14, Macrocyclic peptide) [Example 13111] | 
16 |  | 4 to 9.9 nM | {CH2CO}-Y[NMeA]NP[Dap]L[Hyp]WGW[NMeNle][NMeNle]LCG-cyclopropylamide (thioether N-14, Macrocyclic peptide) [Example 13091] | 
17 |  |  | {CH2CO}-Y[NMeA]NP[Dap]L[Hyp]WGW[NMeNle][NMeNle]LCG-{methyl 3‑aminopropionate} (thioether N-14, Macrocyclic peptide) [Example 13105] | IC50 (hPDL1(19-239)-TVMV-His [3]): 10 nM
18 | 10 to 60 nM |  | {CH2CO}-Y[NMeA]NP[Dap]L[Hyp]WGW[NMeNle][NMeNle]LCG-{2‑methoxyethylamide} (thioether N-14, Macrocyclic peptide) [Example 13082] | 
19 | 10 to 60 nM |  | {CH2CO}-Y[NMeA]NP[Dap]L[Hyp]WGW[NMeNle][NMeNle]LCG-{2‑aminoethylmethylsulfone} (thioether N-14, Macrocyclic peptide) [Example 13116] | 
20 |  | 4 to 9.9 nM | {CH2CO}-Y[NMeA]NP[Dap]L[Hyp]WGW[NMeNle][NMeNle]LCG-{piperazin‑2‑one} (thioether N-14, Macrocyclic peptide) [Example 13114] | 
